Target: purified hTMPRSS2 protein (human, UniProt O15393 1-492)
Test: SPR

Chain of purified hTMPRSS2 protein (O15393 whole entry): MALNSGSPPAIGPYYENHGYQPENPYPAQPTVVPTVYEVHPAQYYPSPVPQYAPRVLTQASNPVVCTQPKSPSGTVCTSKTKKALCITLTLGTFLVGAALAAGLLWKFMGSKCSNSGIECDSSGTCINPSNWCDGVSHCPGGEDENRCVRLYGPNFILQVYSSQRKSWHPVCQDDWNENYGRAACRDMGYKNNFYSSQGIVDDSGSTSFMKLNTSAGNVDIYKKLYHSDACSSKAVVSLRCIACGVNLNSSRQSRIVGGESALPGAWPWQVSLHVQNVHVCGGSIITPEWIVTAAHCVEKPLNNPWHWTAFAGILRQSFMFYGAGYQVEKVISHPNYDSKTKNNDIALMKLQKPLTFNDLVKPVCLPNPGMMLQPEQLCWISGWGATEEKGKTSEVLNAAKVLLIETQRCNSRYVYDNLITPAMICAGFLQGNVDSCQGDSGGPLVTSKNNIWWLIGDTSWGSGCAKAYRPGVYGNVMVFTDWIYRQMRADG

B1: Spike protein (recombinant, analyte of the ternary SPR experiment) (natural protein)
chain: CQTTNGLNTSYSVCNGCVGYSENVFAVESGGYIPSDFAFNNWFLLTNTSSVVDGVVRSFQPLLLNCLWSVSGLRFTTGFVYFNGTGRGDCKGFSSDVLSDVIRYNLNFEENLRRGTILFKTSYGVVVFYCTNNTLVSGDAHIPFGTVLGNFYCFVNTTIGNETTSAFVGALPKTVREFVISRTGHFYINGYRYFTLGNVEAVNFNVTTAETTDFCTVALASYADVLVNVSQTSIANIIYCNSVINRLRCDQLSFDVPDGFYSTSPIQSVELPVSIVSLPVYHKHTFIVLYVDFKPQSGGGKCFNCYPAGVNITLANFNETKGPLCVDTSHFTTKYVAVYANVGRWSASINTGNCPFSFGKVNNFVKFGSVCFSLKDIPGGCAMPIVANWAYSKYYTIGSLYVSWSDGDGITGVPQPVEGVSSFMNVTLDKCTKYNIYDVSGVGVIRVSNDTFLNGITYTSTSGNLLGFKDVTKGTIYSITPCNPPDQLVVYQQAVVGAMLSENFTSYGFSNVVELPKFFYASNGTYNCTDAVLTYSSFGVCADGSIIAVQPRNVSYDSVSAIVTANLSIPSNWTTSVQVEYLQITSTPIVVDCSTYVCNGNVRCVELLKQYTSACKTIEDALRNSARLESADVSEMLTFDKKAFTLANVSSFGDYNLSSVIPSLPTSGSRVAGRSAIEDILFSKLVTSGLGTVDADYKKCTKGLSIADLACAQYYNGIMVLPGVADAERMAMYTGSLIGGIALGGLTSAVSIPFSLAIQARLNYVALQTDVLQENQKILAASFNKAMTNIVDAFTGVNDAITQTSQALQTVATALNKIQDVVNQQGNSLNHLTSQLRQNFQAISSSIQAIYDRLDTIQADQQVDRLITGRLAALNVFVSHTLTKYTEVRASRQLAQQKVNECVKSQSKRYGFCGNGTHIFSIVNAAPEGLVFLHTVLLPTQYKDVEAWSGLCVDGTNGYVLRQPNLALYKEGNYYRITSRIMFEPRIPTMADFVQIENCNVTFVNISRSELQTIVPEYIDVNKTLQELSYKLPNYTVPDLVVEQYNQTILNLTSEISTLENKSAELNYTVQKLQTLIDNINSTLVDLKWLNRVETYIKWP
  Kd: 1360 nM

Source: paper PMC12399569 (2025)
